According to article PMC4188797 (Neuropharmacology, 2014):

Target: the molecule itself
Test: SDS-PAGE and immunoblot of dimer bands in subcellular fractions

B1: metabotropic glutamate receptor 1 splice variant mGluR1b (endogenous, rat brain) (receptor, rat (endogenous in rat brain), UniProt P23385-2 19-906, looked up)
chain: LPRMPDRKVLLAGASSQRSVARMDGDVIIGALFSVHHQPPAEKVPERKCGEIREQYGIQRVEAMFHTLDKINADPVLLPNITLGSEIRDSCWHSSVALEQSIEFIRDSLISIRDEKDGLNRCLPDGQTLPPGRTKKPIAGVIGPGSSSVAIQVQNLLQLFDIPQIAYSATSIDLSDKTLYKYFLRVVPSDTLQARAMLDIVKRYNWTYVSAVHTEGNYGESGMDAFKELAAQEGLCIAHSDKIYSNAGEKSFDRLLRKLRERLPKARVVVCFCEGMTVRGLLSAMRRLGVVGEFSLIGSDGWADRDEVIEGYEVEANGGITIKLQSPEVRSFDDYFLKLRLDTNTRNPWFPEFWQHRFQCRLPGHLLENPNFKKVCTGNESLEENYVQDSKMGFVINAIYAMAHGLQNMHHALCPGHVGLCDAMKPIDGRKLLDFLIKSSFVGVSGEEVWFDEKGDAPGRYDIMNLQYTEANRYDYVHVGTWHEGVLNIDDYKIQMNKSGMVRSVCSEPCLKGQIKVIRKGEVSCCWICTACKENEFVQDEFTCRACDLGWWPNAELTGCEPIPVRYLEWSDIESIIAIAFSCLGILVTLFVTLIFVLYRDTPVVKSSSRELCYIILAGIFLGYVCPFTLIAKPTTTSCYLQRLLVGLSSAMCYSALVTKTNRIARILAGSKKKICTRKPRFMSAWAQVIIASILISVQLTLVVTLIIMEPPMPILSYPSIKEVYLICNTSNLGVVAPVGYNGLLIMSCTYYAFKTRNVPANFNEAKYIAFTMYTTCIIWLAFVPIYFGSNYKIITTCFAVSLSVTVALGCMFTPKMYIIIAKPERNVRSAFTTSDVVRMHVGDGKLPCRSNTFLNIFRRKKPGAGNAKKRQPEFSPSSQCPSAHAQL
- stoichiometry N: 2
